The labels stand for the following.
B1: Pistol ribozyme (parent)
chain: GGGUCGUUGUUCCAUAAUCGCGUGGAUAUGGCACGCAAGUUUCUACCGGGCACCGUAAAUGUCCGACUGGAGCCGUUCGGGCGGCUAUAAACAGACCUCAGGCCCGAAGCGUGGCGGCACCUGCCGCCGGUGGUAAAAAAGAUCGGAAGAGCACACGUCU

Data on 18 variants can be found in the RNAGym collection of RNA variant scans (doi:10.1021/acssynbio.7b00057).

The variants in this data set derive from B1. The data set can be described thus: aptazyme ON/OFF ratio, guanine; higher = stronger switching; co-transcriptional cleavage with and without guanine.
With GGGUCGUUGAAGAAUAAUCGCGUGGAUAUGGCACGCAAGUUUCUACCGGGCACCGUAAAUGUCCGACUGGAGCCGUUCGGGCGGCUAUAAACAGACCUCAGGCCCGAAGCGUGGCGGCACCUGCCGCCGGUGGUAAAAAAGAUCGGAAGAGCACACGUCU, the “aptazyme ON/OFF ratio” value stood at 1.42. Consider GGGUCGUUGAAGGAUAAUCGCGUGGAUAUGGCACGCAAGUUUCUACCGGGCACCGUAAAUGUCCGACUGGAGCCGUUCGGGCGGCUAUAAACAGACCUCAGGCCCGAAGCGUGGCGGCACCUGCCGCCGGUGGUAAAAAAGAUCGGAAGAGCACACGUCU, for which the “aptazyme ON/OFF ratio” value was 1.3.

For GGGUCGUUGAAGUAUAAUCGCGUGGAUAUGGCACGCAAGUUUCUACCGGGCACCGUAAAUGUCCGACUGGAGCCGUUCGGGCGGCUAUAAACAGACCUCAGGCCCGAAGCGUGGCGGCACCUGCCGCCGGUGGUAAAAAAGAUCGGAAGAGCACACGUCU, the “aptazyme ON/OFF ratio” value is 1.23. GGGUCGUUGACGCAUAAUCGCGUGGAUAUGGCACGCAAGUUUCUACCGGGCACCGUAAAUGUCCGACUGGAGCCGUUCGGGCGGCUAUAAACAGACCUCAGGCCCGAAGCGUGGCGGCACCUGCCGCCGGUGGUAAAAAAGAUCGGAAGAGCACACGUCU: the “aptazyme ON/OFF ratio” value was 1.15. Consider GGGUCGUUGACACAUAAUCGCGUGGAUAUGGCACGCAAGUUUCUACCGGGCACCGUAAAUGUCCGACUGGAGCCGUUCGGGCGGCUAUAAACAGACCUCAGGCCCGAAGCGUGGCGGCACCUGCCGCCGGUGGUAAAAAAGAUCGGAAGAGCACACGUCU, for which the “aptazyme ON/OFF ratio” value worked out at 1.16. For GGGUCGUUGACAAAUAAUCGCGUGGAUAUGGCACGCAAGUUUCUACCGGGCACCGUAAAUGUCCGACUGGAGCCGUUCGGGCGGCUAUAAACAGACCUCAGGCCCGAAGCGUGGCGGCACCUGCCGCCGGUGGUAAAAAAGAUCGGAAGAGCACACGUCU the value was 1.17; for GGGUCGUUGACAUAUAAUCGCGUGGAUAUGGCACGCAAGUUUCUACCGGGCACCGUAAAUGUCCGACUGGAGCCGUUCGGGCGGCUAUAAACAGACCUCAGGCCCGAAGCGUGGCGGCACCUGCCGCCGGUGGUAAAAAAGAUCGGAAGAGCACACGUCU, 1.23. For the variant GGGUCGUUGACAGAUAAUCGCGUGGAUAUGGCACGCAAGUUUCUACCGGGCACCGUAAAUGUCCGACUGGAGCCGUUCGGGCGGCUAUAAACAGACCUCAGGCCCGAAGCGUGGCGGCACCUGCCGCCGGUGGUAAAAAAGAUCGGAAGAGCACACGUCU, the “aptazyme ON/OFF ratio” value stood at 1.28.

Take GGGUCGUUGACGAAUAAUCGCGUGGAUAUGGCACGCAAGUUUCUACCGGGCACCGUAAAUGUCCGACUGGAGCCGUUCGGGCGGCUAUAAACAGACCUCAGGCCCGAAGCGUGGCGGCACCUGCCGCCGGUGGUAAAAAAGAUCGGAAGAGCACACGUCU: the “aptazyme ON/OFF ratio” value worked out at 1.15. For GGGUCGUUGACCCAUAAUCGCGUGGAUAUGGCACGCAAGUUUCUACCGGGCACCGUAAAUGUCCGACUGGAGCCGUUCGGGCGGCUAUAAACAGACCUCAGGCCCGAAGCGUGGCGGCACCUGCCGCCGGUGGUAAAAAAGAUCGGAAGAGCACACGUCU the value was 1.05; for GGGUCGUUGAAGCAUAAUCGCGUGGAUAUGGCACGCAAGUUUCUACCGGGCACCGUAAAUGUCCGACUGGAGCCGUUCGGGCGGCUAUAAACAGACCUCAGGCCCGAAGCGUGGCGGCACCUGCCGCCGGUGGUAAAAAAGAUCGGAAGAGCACACGUCU, 1.83; for GGGUCGUUGAAUCAUAAUCGCGUGGAUAUGGCACGCAAGUUUCUACCGGGCACCGUAAAUGUCCGACUGGAGCCGUUCGGGCGGCUAUAAACAGACCUCAGGCCCGAAGCGUGGCGGCACCUGCCGCCGGUGGUAAAAAAGAUCGGAAGAGCACACGUCU, 1.64. As to GGGUCGUUGAACAAUAAUCGCGUGGAUAUGGCACGCAAGUUUCUACCGGGCACCGUAAAUGUCCGACUGGAGCCGUUCGGGCGGCUAUAAACAGACCUCAGGCCCGAAGCGUGGCGGCACCUGCCGCCGGUGGUAAAAAAGAUCGGAAGAGCACACGUCU, the “aptazyme ON/OFF ratio” value came to 1.31. Turning to GGGUCGUUGAACUAUAAUCGCGUGGAUAUGGCACGCAAGUUUCUACCGGGCACCGUAAAUGUCCGACUGGAGCCGUUCGGGCGGCUAUAAACAGACCUCAGGCCCGAAGCGUGGCGGCACCUGCCGCCGGUGGUAAAAAAGAUCGGAAGAGCACACGUCU, the “aptazyme ON/OFF ratio” value worked out at 1.35. In the case of GGGUCGUUGAACGAUAAUCGCGUGGAUAUGGCACGCAAGUUUCUACCGGGCACCGUAAAUGUCCGACUGGAGCCGUUCGGGCGGCUAUAAACAGACCUCAGGCCCGAAGCGUGGCGGCACCUGCCGCCGGUGGUAAAAAAGAUCGGAAGAGCACACGUCU, the “aptazyme ON/OFF ratio” value was 1.12. As for GGGUCGUUGAAUAAUAAUCGCGUGGAUAUGGCACGCAAGUUUCUACCGGGCACCGUAAAUGUCCGACUGGAGCCGUUCGGGCGGCUAUAAACAGACCUCAGGCCCGAAGCGUGGCGGCACCUGCCGCCGGUGGUAAAAAAGAUCGGAAGAGCACACGUCU, the “aptazyme ON/OFF ratio” value stood at 1.54.

Turning to GGGUCGUUGAAUGAUAAUCGCGUGGAUAUGGCACGCAAGUUUCUACCGGGCACCGUAAAUGUCCGACUGGAGCCGUUCGGGCGGCUAUAAACAGACCUCAGGCCCGAAGCGUGGCGGCACCUGCCGCCGGUGGUAAAAAAGAUCGGAAGAGCACACGUCU, the “aptazyme ON/OFF ratio” value turned out to be 1.35. Take GGGUCGUUGAAUUAUAAUCGCGUGGAUAUGGCACGCAAGUUUCUACCGGGCACCGUAAAUGUCCGACUGGAGCCGUUCGGGCGGCUAUAAACAGACCUCAGGCCCGAAGCGUGGCGGCACCUGCCGCCGGUGGUAAAAAAGAUCGGAAGAGCACACGUCU: the “aptazyme ON/OFF ratio” value was 1.69.
